This is an account of results in PMC6382874, “Succinylation-dependent mitochondrial translocation of PKM2 promotes cell survival in response to nutritional stress” (Cell Death & Disease, 2019).

This assay addresses T1, His-PKM2 (human, UniProt P14618 1-531).
T1 construct: Pyruvate kinase M2 (PKM2), human cDNA cloned into pET28a(+); also called His-tagged-PKM2; source: E. coli BL21, purified (Ni–agarose beads); not shown: His-tag, N-terminal, kept
Nature of the assay: pull-down; in vitro binding of His-PKM2 (2.5 μg) and GST-VDAC3, Ni–NTA agarose, western blot with anti-GST or anti-His antibody. The conditions noted are these: both partners purified. For orientation: Immunoblotting shows a protein as a band on a membrane.

T1 sequence (P14618 whole entry): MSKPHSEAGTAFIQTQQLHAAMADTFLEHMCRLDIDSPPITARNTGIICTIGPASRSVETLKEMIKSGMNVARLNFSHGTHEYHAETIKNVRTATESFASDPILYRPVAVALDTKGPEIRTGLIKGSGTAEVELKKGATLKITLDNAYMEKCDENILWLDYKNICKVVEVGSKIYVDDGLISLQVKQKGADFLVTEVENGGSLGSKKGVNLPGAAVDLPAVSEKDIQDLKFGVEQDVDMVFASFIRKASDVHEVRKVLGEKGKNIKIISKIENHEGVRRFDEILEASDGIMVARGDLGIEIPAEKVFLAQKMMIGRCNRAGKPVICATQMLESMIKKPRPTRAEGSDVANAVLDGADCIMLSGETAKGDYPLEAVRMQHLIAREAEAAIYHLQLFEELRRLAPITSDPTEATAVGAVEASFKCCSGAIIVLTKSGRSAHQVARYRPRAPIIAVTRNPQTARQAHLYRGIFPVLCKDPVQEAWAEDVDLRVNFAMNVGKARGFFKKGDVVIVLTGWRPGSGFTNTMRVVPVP

B1: GST-VDAC3 (natural protein, human, UniProt Q9Y277 1-283, looked up)
chain: MCNTPTYCDLGKAAKDVFNKGYGFGMVKIDLKTKSCSGVEFSTSGHAYTDTGKASGNLETKYKVCNYGLTFTQKWNTDNTLGTEISWENKLAEGLKLTLDTIFVPNTGKKSGKLKASYKRDCFSVGSNVDIDFSGPTIYGWAVLAFEGWLAGYQMSFDTAKSKLSQNNFALGYKAADFQLHTHVNDGTEFGGSIYQKVNEKIETSINLAWTAGSNNTRFGIAAKYMLDCRTSLSAKVNNASLIGLGYTQTLRPGVKLTLSALIDGKNFSAGGHKVGLGFELEA
notes: VDAC3, human cDNA cloned into pGEX-4T-1; also called GST-tagged-VDAC3; source: E. coli BL21, purified (GST agarose beads); the pull-down method also calls it in vitro translated; not shown: GST, N-terminal, kept
For the molecule B1, the binding result is given as “binds”.
